B1: Phospholipid-transporting ATPase IH (Homo sapiens), P98196 (parent)
chain: MDCSLVRTLVHRYCAGEENWVDSRTIYVGHREPPPGAEAYIPQRYPDNRIVSSKYTFWNFIPKNLFEQFRRVANFYFLIIFLVQLIIDTPTSPVTSGLPLFFVITVTAIKQGYEDWLRHKADNAMNQCPVHFIQHGKLVRKQSRKLRVGDIVMVKEDETFPCDLIFLSSNRGDGTCHVTTASLDGESSHKTHYAVQDTKGFHTEEDIGGLHATIECEQPQPDLYKFVGRINVYSDLNDPVVRPLGSENLLLRGATLKNTEKIFGVAIYTGMETKMALNYQSKSQKRSAVEKSMNAFLIVYLCILISKALINTVLKYMWQSEPFRDEPWYNQKTESERQRNLFLKAFTDFLAFMVLFNYIIPVSMYVTVEMQKFLGSYFITWDEDMFDEETGEGPLVNTSDLNEELGQVEYIFTDKTGTLTENNMEFKECCIEGHVYVPHVICNGQVLPESSGIDMIDSSPSVNGREREELFFRALCLCHTVQVKDDDSVDGPRKSPDGGKSCVYISSSPDEVALVEGVQRLGFTYLRLKDNYMEILNRENHIERFELLEILSFDSVRRRMSVIVKSATGEIYLFCKGADSSIFPRVIEGKVDQIRARVERNAVEGLRTLCVAYKRLIQEEYEGICKLLQAAKVALQDREKKLAEAYEQIEKDLTLLGATAVEDRLQEKAADTIEALQKAGIKVWVLTGDKMETAAATCYACKLFRRNTQLLELTTKRIEEQSLHDVLFELSKTVLRHSGSLTRDNLSGLSADMQDYGLIIDGAALSLIMKPREDGSSGNYRELFLEICRSCSAVLCCRMAPLQKAQIVKLIKFSKEHPITLAIGDGANDVSMILEAHVGIGVIGKEGRQAARNSDYAIPKFKHLKKMLLVHGHFYYIRISELVQYFFYKNVCFIFPQFLYQFFCGFSQQTLYDTAYLTLYNISFTSLPILLYSLMEQHVGIDVLKRDPTLYRDVAKNALLRWRVFIYWTLLGLFDALVFFFGAYFVFENTTVTSNGQIFGNWTFGTLVFTVMVFTVTLKLALDTHYWTWINHFVIWGSLLFYVVFSLLWGGVIWPFLNYQRMYYVFIQMLSSGPAWLAIVLLVTISLLPDVLKKVLCRQLWPTATERVQTKSQCLSVEQSTIFMLSQTSSSLSF
partner: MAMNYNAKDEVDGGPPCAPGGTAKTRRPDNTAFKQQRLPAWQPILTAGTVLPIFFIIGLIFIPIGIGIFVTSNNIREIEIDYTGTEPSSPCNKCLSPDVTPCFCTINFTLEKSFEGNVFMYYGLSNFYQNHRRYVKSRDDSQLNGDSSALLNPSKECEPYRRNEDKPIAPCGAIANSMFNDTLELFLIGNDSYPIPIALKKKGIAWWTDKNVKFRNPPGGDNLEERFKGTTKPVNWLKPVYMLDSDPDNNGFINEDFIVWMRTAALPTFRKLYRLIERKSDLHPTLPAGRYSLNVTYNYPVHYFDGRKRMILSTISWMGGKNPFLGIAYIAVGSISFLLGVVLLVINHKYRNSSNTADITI
B2: Phospholipid-transporting ATPase IG (Homo sapiens), Q8NB49 (parent)
chain: MQMVPSLPPASECAGEEKRVGTRTVFVGNHPVSETEAYIAQRFCDNRIVSSKYTLWNFLPKNLFEQFRRIANFYFLIIFLVQVTVDTPTSPVTSGLPLFFVITVTAIKQGYEDCLRHRADNEVNKSTVYIIENAKRVRKESEKIKVGDVVEVQADETFPCDLILLSSCTTDGTCYVTTASLDGESNCKTHYAVRDTIALCTAESIDTLRAAIECEQPQPDLYKFVGRINIYSNSLEAVARSLGPENLLLKGATLKNTEKIYGVAVYTGMETKMALNYQGKSQKRSAVEKSINAFLIVYLFILLTKAAVCTTLKYVWQSTPYNDEPWYNQKTQKERETLKVLKMFTDFLSFMVLFNFIIPVSMYVTVEMQKFLGSFFISWDKDFYDEEINEGALVNTSDLNEELGQVDYVFTDKTGTLTENSMEFIECCIDGHKYKGVTQEVDGLSQTDGTLTYFDKVDKNREELFLRALCLCHTVEIKTNDAVDGATESAELTYISSSPDEIALVKGAKRYGFTFLGNRNGYMRVENQRKEIEEYELLHTLNFDAVRRRMSVIVKTQEGDILLFCKGADSAVFPRVQNHEIELTKVHVERNAMDGYRTLCVAFKEIAPDDYERINRQLIEAKMALQDREEKMEKVFDDIETNMNLIGATAVEDKLQDQAAETIEALHAAGLKVWVLTGDKMETAKSTCYACRLFQTNTELLELTTKTIEESERKEDRLHELLIEYRKKLLHEFPKSTRSFKKAWTEHQEYGLIIDGSTLSLILNSSQDSSSNNYKSIFLQICMKCTAVLCCRMAPLQKAQIVRMVKNLKGSPITLSIGDGANDVSMILESHVGIGIKGKEGRQAARNSDYSVPKFKHLKKLLLAHGHLYYVRIAHLVQYFFYKNLCFILPQFLYQFFCGFSQQPLYDAAYLTMYNICFTSLPILAYSLLEQHINIDTLTSDPRLYMKISGNAMLQLGPFLYWTFLAAFEGTVFFFGTYFLFQTASLEENGKVYGNWTFGTIVFTVLVFTVTLKLALDTRFWTWINHFVIWGSLAFYVFFSFFWGGIIWPFLKQQRMYFVFAQMLSSVSTWLAIILLIFISLFPEILLIVLKNVRRRSARRNLSCRRASDSLSARPSVRPLLLRTFSDESNVL
partner: B1 partner
B3: Phospholipid-transporting ATPase VA (Homo sapiens), O60312 (parent)
chain: MEREPAGTEEPGPPGRRRRREGRTRTVRSNLLPPPGAEDPAAGAAKGERRRRRGCAQHLADNRLKTTKYTLLSFLPKNLFEQFHRPANVYFVFIALLNFVPAVNAFQPGLALAPVLFILAITAFRDLWEDYSRHRSDHKINHLGCLVFSREEKKYVNRFWKEIHVGDFVRLRCNEIFPADILLLSSSDPDGLCHIETANLDGETNLKRRQVVRGFSELVSEFNPLTFTSVIECEKPNNDLSRFRGCIIHDNGKKAGLYKENLLLRGCTLRNTDAVVGIVIYAGHETKALLNNSGPRYKRSKLERQMNCDVLWCVLLLVCMSLFSAVGHGLWIWRYQEKKSLFYVPKSDGSSLSPVTAAVYSFLTMIIVLQVLIPISLYVSIEIVKACQVYFINQDMQLYDEETDSQLQCRALNITEDLGQIQYIFSDKTGTLTENKMVFRRCTVSGVEYSHDANAQRLARYQEADSEEEEVVPRGGSVSQRGSIGSHQSVRVVHRTQSTKSHRRTGSRAEAKRASMLSKHTAFSSPMEKDITPDPKLLEKVSECDKSLAVARHQEHLLAHLSPELSDVFDFFIALTICNTVVVTSPDQPRTKVRVRFELKSPVKTIEDFLRRFTPSCLTSGCSSIGSLAANKSSHKLGSSFPSTPSSDGMLLRLEERLGQPTSAIASNGYSSQADNWASELAQEQESERELRYEAESPDEAALVYAARAYNCVLVERLHDQVSVELPHLGRLTFELLHTLGFDSVRKRMSVVIRHPLTDEINVYTKGADSVVMDLLQPCSSVDARGRHQKKIRSKTQNYLNVYAAEGLRTLCIAKRVLSKEEYACWLQSHLEAESSLENSEELLFQSAIRLETNLHLLGATGIEDRLQDGVPETISKLRQAGLQIWVLTGDKQETAVNIAYACKLLDHDEEVITLNATSQEACAALLDQCLCYVQSRGLQRAPEKTKGKVSMRFSSLCPPSTSTASGRRPSLVIDGRSLAYALEKNLEDKFLFLAKQCRSVLCCRSTPLQKSMVVKLVRSKLKAMTLAIGDGANDVSMIQVADVGVGISGQEGMQAVMASDFAVPKFRYLERLLILHGHWCYSRLANMVLYFFYKNTMFVGLLFWFQFFCGFSASTMIDQWYLIFFNLLFSSLPPLVTGVLDRDVPANVLLTNPQLYKSGQNMEEYRPRTFWFNMADAAFQSLVCFSIPYLAYYDSNVDLFTWGTPIVTIALLTFLLHLGIETKTWTWLNWITCGFSVLLFFTVALIYNASCATCYPPSNPYWTMQALLGDPVFYLTCLMTPVAALLPRLFFRSLQGRVFPTQLQLARQLTRKSPRRCSAPKETFAQGRLPKDSGTEHSSGRTVKTSVPLSQPSWHTQQPVCSLEASGEPSTVDMSMPVREHTLLEGLSAPAPMSSAPGEAVLRSPGGCPEESKVRAASTGRVTPLSSLFSLPTFSLLNWISSWSLVSRLGSVLQFSRTEQLADGQAGRGLPVQPHSGRSGLQGPDHRLLIGASSRRSQ
partner: B1 partner
B4: Phospholipid-transporting ATPase IF (Homo sapiens), Q9Y2G3 (parent)
chain: MWRWIRQQLGFDPPHQSDTRTIYVANRFPQNGLYTPQKFIDNRIISSKYTVWNFVPKNLFEQFRRVANFYFLIIFLVQLMIDTPTSPVTSGLPLFFVITVTAIKQGYEDWLRHNSDNEVNGAPVYVVRSGGLVKTRSKNIRVGDIVRIAKDEIFPADLVLLSSDRLDGSCHVTTASLDGETNLKTHVAVPETALLQTVANLDTLVAVIECQQPEADLYRFMGRMIITQQMEEIVRPLGPESLLLRGARLKNTKEIFGVAVYTGMETKMALNYKSKSQKRSAVEKSMNTFLIIYLVILISEAVISTILKYTWQAEEKWDEPWYNQKTEHQRNSSKILRFISDFLAFLVLYNFIIPISLYVTVEMQKFLGSFFIGWDLDLYHEESDQKAQVNTSDLNEELGQVEYVFTDKTGTLTENEMQFRECSINGMKYQEINGRLVPEGPTPDSSEGNLSYLSSLSHLNNLSHLTTSSSFRTSPENETELIKEHDLFFKAVSLCHTVQISNVQTDCTGDGPWQSNLAPSQLEYYASSPDEKALVEAAARIGIVFIGNSEETMEVKTLGKLERYKLLHILEFDSDRRRMSVIVQAPSGEKLLFAKGAESSILPKCIGGEIEKTRIHVDEFALKGLRTLCIAYRKFTSKEYEEIDKRIFEARTALQQREEKLAAVFQFIEKDLILLGATAVEDRLQDKVRETIEALRMAGIKVWVLTGDKHETAVSVSLSCGHFHRTMNILELINQKSDSECAEQLRQLARRITEDHVIQHGLVVDGTSLSLALREHEKLFMEVCRNCSAVLCCRMAPLQKAKVIRLIKISPEKPITLAVGDGANDVSMIQEAHVGIGIMGKEGRQAARNSDYAIARFKFLSKLLFVHGHFYYIRIATLVQYFFYKNVCFITPQFLYQFYCLFSQQTLYDSVYLTLYNICFTSLPILIYSLLEQHVDPHVLQNKPTLYRDISKNRLLSIKTFLYWTILGFSHAFIFFFGSYLLIGKDTSLLGNGQMFGNWTFGTLVFTVMVITVTVKMALETHFWTWINHLVTWGSIIFYFVFSLFYGGILWPFLGSQNMYFVFIQLLSSGSAWFAIILMVVTCLFLDIIKKVFDRHLHPTSTEKAQLTETNAGIKCLDSMCCFPEGEAACASVGRMLERVIGRCSPTHISRSWSASDPFYTNDRSILTLSTMDSSTC
partner: B1 partner

Variants of: B1
Details: with cc50a_human TMEM30A

Variant	effect of a mutation on the interaction
G185L	disrupting interaction strength
E186Q	increasing interaction strength
D414N	disrupting interaction strength

Variants of: B2
Details: with cc50a_human TMEM30A

Variant	effect of a mutation on the interaction
D412N	disrupting interaction strength
G183L	disrupting interaction strength
E184Q	increasing interaction strength

Variants of: B3
Details: with cc50a_human TMEM30A

Variant	effect of a mutation on the interaction
G202L	disrupting interaction strength
D427N	disrupting interaction strength
E203Q	increasing interaction strength

Variants of: B4
Details: with cc50a_human TMEM30A

Variant	effect of a mutation on the interaction
D407N	disrupting interaction strength
G179L	decreasing interaction strength
E180Q	increasing interaction strength

From IntAct's records for PubMed 31571211
